Molecular target: wild-type Pfs48/45 D3 (6C domain), glycosylated (Plasmodium falciparum) (UniProt Q8I6T1)
UniProt Q8I6T1, sequence (Q8I6T1 291-428, tags left off): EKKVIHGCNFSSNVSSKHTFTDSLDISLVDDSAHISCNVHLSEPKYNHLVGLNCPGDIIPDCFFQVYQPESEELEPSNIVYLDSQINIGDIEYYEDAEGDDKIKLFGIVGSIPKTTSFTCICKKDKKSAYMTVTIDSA

TB31F neutralizing monoclonal antibody (humanized version of mAb 85RF45.1) (from UniProt P0DOY2 1-106)
Kd: 2.5 nM | koff: 0.00082 s⁻¹ | kon: 350000 M⁻¹ s⁻¹
